Data as given in publication PMC9046087, “Structural basis of tethered agonism of the adhesion GPCRs ADGRD1 and ADGRF1” (Nature, 2022).

B1: V585^1.36bA (protein, UniProt Q5T601 20-910, looked up, variant V585A)
Adhesion G-protein coupled …: GFLGKNDGIKTKKELIVNKKKHLGPVEEYQLLLQVTYRDSKEKRDLRNFLKLLKPPLLWSHGLIRIIRAKATTDCNSLNGVLQCTCEDSYTWFPPSCLDPQNCYLHTAGALPSCECHLNNLSQSVNFCERTKIWGTFKINERFTNDLLNSSSAIYSKYANGIEIQLKKAYERIQGFESVQVTQFRNGSIVAGYEVVGSSSASELLSAIEHVAEKAKTALHKLFPLEDGSFRVFGKAQCNDIVFGFGSKDDEYTLPCSSGYRGNITAKCESSGWQVIRETCVLSLLEELNKNFSMIVGNATEAAVSSFVQNLSVIIRQNPSTTVGNLASVVSILSNISSLSLASHFRVSNSTMEDVISIADNILNSASVTNWTVLLREEKYASSRLLETLENISTLVPPTALPLNFSRKFIDWKGIPVNKSQLKRGYSYQIKMCPQNTSIPIRGRVLIGSDQFQRSLPETIISMASLTLGNILPVSKNGNAQVNGPVISTVIQNYSINEVFLFFSKIESNLSQPHCVFWDFSHLQWNDAGCHLVNETQDIVTCQCTHLTSFSILMSPFVPSTIFPVAKWITYVGLGISIGSLILCLIIEALFWKQIKKSQTSHTRRICMVNIALSLLIADVWFIVGATVDTTVNPSGVCTAAVFFTHFFYLSLFFWMLMLGILLAYRIILVFHHMAQHLMMAVGFCLGYGCPLIISVITIAVTQPSNTYKRKDVCWLNWSNGSKPLLAFVVPALAIVAVNFVVVLLVLTKLWRPTVGERLSRDDKATIIRVGKSLLILTPLLGLTWGFGIGTIVDSQNLAWHVIFALLNAFQGFFILCFGILLDSKLRQLLFNKLSALSSWKQTEKQNSSDLSAKPKFSKPFNPLQNKGHYAFSHTGDSSDNIMLTQFVSNE
B2: Y668^3.40bA (protein, UniProt Q5T601 20-910, looked up, variant Y668A)
Adhesion G-protein coupled …: GFLGKNDGIKTKKELIVNKKKHLGPVEEYQLLLQVTYRDSKEKRDLRNFLKLLKPPLLWSHGLIRIIRAKATTDCNSLNGVLQCTCEDSYTWFPPSCLDPQNCYLHTAGALPSCECHLNNLSQSVNFCERTKIWGTFKINERFTNDLLNSSSAIYSKYANGIEIQLKKAYERIQGFESVQVTQFRNGSIVAGYEVVGSSSASELLSAIEHVAEKAKTALHKLFPLEDGSFRVFGKAQCNDIVFGFGSKDDEYTLPCSSGYRGNITAKCESSGWQVIRETCVLSLLEELNKNFSMIVGNATEAAVSSFVQNLSVIIRQNPSTTVGNLASVVSILSNISSLSLASHFRVSNSTMEDVISIADNILNSASVTNWTVLLREEKYASSRLLETLENISTLVPPTALPLNFSRKFIDWKGIPVNKSQLKRGYSYQIKMCPQNTSIPIRGRVLIGSDQFQRSLPETIISMASLTLGNILPVSKNGNAQVNGPVISTVIQNYSINEVFLFFSKIESNLSQPHCVFWDFSHLQWNDAGCHLVNETQDIVTCQCTHLTSFSILMSPFVPSTIFPVVKWITYVGLGISIGSLILCLIIEALFWKQIKKSQTSHTRRICMVNIALSLLIADVWFIVGATVDTTVNPSGVCTAAVFFTHFFALSLFFWMLMLGILLAYRIILVFHHMAQHLMMAVGFCLGYGCPLIISVITIAVTQPSNTYKRKDVCWLNWSNGSKPLLAFVVPALAIVAVNFVVVLLVLTKLWRPTVGERLSRDDKATIIRVGKSLLILTPLLGLTWGFGIGTIVDSQNLAWHVIFALLNAFQGFFILCFGILLDSKLRQLLFNKLSALSSWKQTEKQNSSDLSAKPKFSKPFNPLQNKGHYAFSHTGDSSDNIMLTQFVSNE
B3: T589^1.40bA (protein, UniProt Q5T601 20-910, looked up, variant T589A)
Adhesion G-protein coupled …: GFLGKNDGIKTKKELIVNKKKHLGPVEEYQLLLQVTYRDSKEKRDLRNFLKLLKPPLLWSHGLIRIIRAKATTDCNSLNGVLQCTCEDSYTWFPPSCLDPQNCYLHTAGALPSCECHLNNLSQSVNFCERTKIWGTFKINERFTNDLLNSSSAIYSKYANGIEIQLKKAYERIQGFESVQVTQFRNGSIVAGYEVVGSSSASELLSAIEHVAEKAKTALHKLFPLEDGSFRVFGKAQCNDIVFGFGSKDDEYTLPCSSGYRGNITAKCESSGWQVIRETCVLSLLEELNKNFSMIVGNATEAAVSSFVQNLSVIIRQNPSTTVGNLASVVSILSNISSLSLASHFRVSNSTMEDVISIADNILNSASVTNWTVLLREEKYASSRLLETLENISTLVPPTALPLNFSRKFIDWKGIPVNKSQLKRGYSYQIKMCPQNTSIPIRGRVLIGSDQFQRSLPETIISMASLTLGNILPVSKNGNAQVNGPVISTVIQNYSINEVFLFFSKIESNLSQPHCVFWDFSHLQWNDAGCHLVNETQDIVTCQCTHLTSFSILMSPFVPSTIFPVVKWIAYVGLGISIGSLILCLIIEALFWKQIKKSQTSHTRRICMVNIALSLLIADVWFIVGATVDTTVNPSGVCTAAVFFTHFFYLSLFFWMLMLGILLAYRIILVFHHMAQHLMMAVGFCLGYGCPLIISVITIAVTQPSNTYKRKDVCWLNWSNGSKPLLAFVVPALAIVAVNFVVVLLVLTKLWRPTVGERLSRDDKATIIRVGKSLLILTPLLGLTWGFGIGTIVDSQNLAWHVIFALLNAFQGFFILCFGILLDSKLRQLLFNKLSALSSWKQTEKQNSSDLSAKPKFSKPFNPLQNKGHYAFSHTGDSSDNIMLTQFVSNE
B4: W734^ECL2A (protein, UniProt Q5T601 20-910, looked up, variant W734A)
Adhesion G-protein coupled …: GFLGKNDGIKTKKELIVNKKKHLGPVEEYQLLLQVTYRDSKEKRDLRNFLKLLKPPLLWSHGLIRIIRAKATTDCNSLNGVLQCTCEDSYTWFPPSCLDPQNCYLHTAGALPSCECHLNNLSQSVNFCERTKIWGTFKINERFTNDLLNSSSAIYSKYANGIEIQLKKAYERIQGFESVQVTQFRNGSIVAGYEVVGSSSASELLSAIEHVAEKAKTALHKLFPLEDGSFRVFGKAQCNDIVFGFGSKDDEYTLPCSSGYRGNITAKCESSGWQVIRETCVLSLLEELNKNFSMIVGNATEAAVSSFVQNLSVIIRQNPSTTVGNLASVVSILSNISSLSLASHFRVSNSTMEDVISIADNILNSASVTNWTVLLREEKYASSRLLETLENISTLVPPTALPLNFSRKFIDWKGIPVNKSQLKRGYSYQIKMCPQNTSIPIRGRVLIGSDQFQRSLPETIISMASLTLGNILPVSKNGNAQVNGPVISTVIQNYSINEVFLFFSKIESNLSQPHCVFWDFSHLQWNDAGCHLVNETQDIVTCQCTHLTSFSILMSPFVPSTIFPVVKWITYVGLGISIGSLILCLIIEALFWKQIKKSQTSHTRRICMVNIALSLLIADVWFIVGATVDTTVNPSGVCTAAVFFTHFFYLSLFFWMLMLGILLAYRIILVFHHMAQHLMMAVGFCLGYGCPLIISVITIAVTQPSNTYKRKDVCALNWSNGSKPLLAFVVPALAIVAVNFVVVLLVLTKLWRPTVGERLSRDDKATIIRVGKSLLILTPLLGLTWGFGIGTIVDSQNLAWHVIFALLNAFQGFFILCFGILLDSKLRQLLFNKLSALSSWKQTEKQNSSDLSAKPKFSKPFNPLQNKGHYAFSHTGDSSDNIMLTQFVSNE
B5: F641^2.64bA (protein, UniProt Q5T601 20-910, looked up, variant F641A)
Adhesion G-protein coupled …: GFLGKNDGIKTKKELIVNKKKHLGPVEEYQLLLQVTYRDSKEKRDLRNFLKLLKPPLLWSHGLIRIIRAKATTDCNSLNGVLQCTCEDSYTWFPPSCLDPQNCYLHTAGALPSCECHLNNLSQSVNFCERTKIWGTFKINERFTNDLLNSSSAIYSKYANGIEIQLKKAYERIQGFESVQVTQFRNGSIVAGYEVVGSSSASELLSAIEHVAEKAKTALHKLFPLEDGSFRVFGKAQCNDIVFGFGSKDDEYTLPCSSGYRGNITAKCESSGWQVIRETCVLSLLEELNKNFSMIVGNATEAAVSSFVQNLSVIIRQNPSTTVGNLASVVSILSNISSLSLASHFRVSNSTMEDVISIADNILNSASVTNWTVLLREEKYASSRLLETLENISTLVPPTALPLNFSRKFIDWKGIPVNKSQLKRGYSYQIKMCPQNTSIPIRGRVLIGSDQFQRSLPETIISMASLTLGNILPVSKNGNAQVNGPVISTVIQNYSINEVFLFFSKIESNLSQPHCVFWDFSHLQWNDAGCHLVNETQDIVTCQCTHLTSFSILMSPFVPSTIFPVVKWITYVGLGISIGSLILCLIIEALFWKQIKKSQTSHTRRICMVNIALSLLIADVWAIVGATVDTTVNPSGVCTAAVFFTHFFYLSLFFWMLMLGILLAYRIILVFHHMAQHLMMAVGFCLGYGCPLIISVITIAVTQPSNTYKRKDVCWLNWSNGSKPLLAFVVPALAIVAVNFVVVLLVLTKLWRPTVGERLSRDDKATIIRVGKSLLILTPLLGLTWGFGIGTIVDSQNLAWHVIFALLNAFQGFFILCFGILLDSKLRQLLFNKLSALSSWKQTEKQNSSDLSAKPKFSKPFNPLQNKGHYAFSHTGDSSDNIMLTQFVSNE
B6: L593^1.47bA (protein, UniProt Q5T601 20-910, looked up, variant L593A)
Adhesion G-protein coupled …: GFLGKNDGIKTKKELIVNKKKHLGPVEEYQLLLQVTYRDSKEKRDLRNFLKLLKPPLLWSHGLIRIIRAKATTDCNSLNGVLQCTCEDSYTWFPPSCLDPQNCYLHTAGALPSCECHLNNLSQSVNFCERTKIWGTFKINERFTNDLLNSSSAIYSKYANGIEIQLKKAYERIQGFESVQVTQFRNGSIVAGYEVVGSSSASELLSAIEHVAEKAKTALHKLFPLEDGSFRVFGKAQCNDIVFGFGSKDDEYTLPCSSGYRGNITAKCESSGWQVIRETCVLSLLEELNKNFSMIVGNATEAAVSSFVQNLSVIIRQNPSTTVGNLASVVSILSNISSLSLASHFRVSNSTMEDVISIADNILNSASVTNWTVLLREEKYASSRLLETLENISTLVPPTALPLNFSRKFIDWKGIPVNKSQLKRGYSYQIKMCPQNTSIPIRGRVLIGSDQFQRSLPETIISMASLTLGNILPVSKNGNAQVNGPVISTVIQNYSINEVFLFFSKIESNLSQPHCVFWDFSHLQWNDAGCHLVNETQDIVTCQCTHLTSFSILMSPFVPSTIFPVVKWITYVGAGISIGSLILCLIIEALFWKQIKKSQTSHTRRICMVNIALSLLIADVWFIVGATVDTTVNPSGVCTAAVFFTHFFYLSLFFWMLMLGILLAYRIILVFHHMAQHLMMAVGFCLGYGCPLIISVITIAVTQPSNTYKRKDVCWLNWSNGSKPLLAFVVPALAIVAVNFVVVLLVLTKLWRPTVGERLSRDDKATIIRVGKSLLILTPLLGLTWGFGIGTIVDSQNLAWHVIFALLNAFQGFFILCFGILLDSKLRQLLFNKLSALSSWKQTEKQNSSDLSAKPKFSKPFNPLQNKGHYAFSHTGDSSDNIMLTQFVSNE

test system: ADGRF1; assay: Cell-surface expression by flow cytometry, ADGRF1; assay type: cell-based, human; conditions: ADGRF1 constructs (pF1 Gi part of table), anti-Flag antibody, three independent measurements in duplicate
Description: The wild-type ADGRD1 and ADGRF1 and mutants used in functional studies were constructed into a pTT5 vector with a Flag tag at the N terminus for receptor expression measurement. The basal activity of ADGRD1 and ADGRF1 in mediating Gs signalling was measured by a cAMP accumulation assay using a LANCE Ultra cAMP detection kit (PerkinElmer) following the manufacturer’s instruction. In brief, 2 ml HEK293F cells (Invitrogen; cells were routinely tested for mycoplasma contamination) at a density of 1.2 × 10^6 cells per ml were transiently transfected with 2,000 ng plasmid of the wild-type or mutant receptor and cultured at 37 °C for 48 h with 5% CO2 atmosphere in a shaker shaking at 220 rpm. After collection, the cell-surface expression of the receptors was measured by incubating 10 μl cells with 15 μl monoclonal anti-Flag M2-FITC antibody (Sigma; 1:120 diluted in TBS supplemented with 4% BSA and 20% viability staining solution 7-AAD (Invitrogen)) at 4 °C for 20 min. After incubation, 175 μl TBS buffer was added and the fluorescent signal was measured using a flow cytometry reader (Guava easyCyte HT, Millipore).

Molecule	Cell-surface expression (% of WT)
B1	91 ± 21 % of WT
B2	67 ± 1 % of WT
B3	83 ± 3 % of WT
B4	87 ± 1 % of WT
B5	82 ± 19 % of WT
B6	90 ± 6 % of WT
